Experimental data from patent publication US20230357348A1 (AstraZeneca / MedImmune, published 2023).
Starred links: 1 amine or outer side, 2 acyl side, 3 side chain; linkers in the order of their positions; H or OH if unused. Non-standard residues stand in square brackets, D forms with d. Groups on a side chain read outwards from the residue. Primed or numbered codes have the meaning given here. No end group written: not given here. *: point of attachment. C20 diacid = O=C(O)CCCCCCCCCCCCCCCCCCC(=O)*; C18 diacid = O=C(O)CCCCCCCCCCCCCCCCC(=O)*; γGlu = O=C(O)[C@H](CCC(=O)[*:2])N[*:1]; αMeF = C[C@](N)(Cc1ccccc1)C(=O)O; PEG4′ = polyethylene glycol; AEEA = NCCOCCOCC(=O)O; Aib = CC(C)(N)C(=O)O

Key:
[1] = target: human GLP-1 receptor (hGLP-1R) (human, UniProt P43220 24-463); test: cell-based or functional assay
[2] = target: human glucagon receptor (hGCGR) (human, UniProt P47871 26-477); test: cell-based or functional assay
human glucagon receptor (hGCGR), sequence (P47871 26-477): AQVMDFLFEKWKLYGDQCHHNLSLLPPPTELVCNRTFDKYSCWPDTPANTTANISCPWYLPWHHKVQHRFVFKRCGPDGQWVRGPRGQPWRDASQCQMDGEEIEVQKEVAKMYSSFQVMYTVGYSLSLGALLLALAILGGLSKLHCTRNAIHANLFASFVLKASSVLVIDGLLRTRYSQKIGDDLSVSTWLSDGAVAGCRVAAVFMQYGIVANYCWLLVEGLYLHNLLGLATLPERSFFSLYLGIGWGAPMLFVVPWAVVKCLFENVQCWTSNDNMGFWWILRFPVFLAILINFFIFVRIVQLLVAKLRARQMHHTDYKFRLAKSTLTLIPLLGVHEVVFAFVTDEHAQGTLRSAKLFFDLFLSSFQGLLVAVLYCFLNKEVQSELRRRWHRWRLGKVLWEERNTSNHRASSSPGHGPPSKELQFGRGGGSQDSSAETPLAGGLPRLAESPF

Binder	hGLP-1R EC50 (pM) [1] [pM]	hGluc-R EC50 (pM) [2] [pM]
H[Aib]QGTFTSDVSK[αMeF]LDSK([AEEA-AEEA-γGlu-C18 diacid])RAQDFVQ[Aib]LVAT-OH (N-terminus assumed; SMILES CC(C)C[C@H](NC(=O)C(C)(C)NC(=O)[C@H](CCC(N)=O)NC(=O)[C@@H](NC(=O)[C@H](Cc1ccccc1)NC(=O)[C@H](CC(=O)O)NC(=O)[C@H](CCC(N)=O)NC(=O)[C@H](C)NC(=O)[C@H](CCCNC(=N)N)NC(=O)[C@H](CCCCNC(=O)COCCOCCNC(=O)COCCOCCNC(=O)CC[C@H](NC(=O)CCCCCCCCCCCCCCCCC(=O)O)C(=O)O)NC(=O)[C@H](CO)NC(=O)[C@H](CC(=O)O)NC(=O)[C@H](CC(C)C)NC(=O)[C@](C)(Cc1ccccc1)NC(=O)[C@H](CCCCN)NC(=O)[C@H](CO)NC(=O)[C@@H](NC(=O)[C@H](CC(=O)O)NC(=O)[C@H](CO)NC(=O)[C@@H](NC(=O)[C@H](Cc1ccccc1)NC(=O)[C@@H](NC(=O)CNC(=O)[C@H](CCC(N)=O)NC(=O)C(C)(C)NC(=O)[C@@H](N)Cc1c[nH]cn1)[C@@H](C)O)[C@@H](C)O)C(C)C)C(C)C)C(=O)N[C@H](C(=O)N[C@@H](C)C(=O)N[C@H](C(=O)O)[C@@H](C)O)C(C)C) [Peptide 42]	665	8190
H[Aib]QGTFTSDVSK[αMeF]LDSK([γGlu-γGlu-AEEA-AEEA-γGlu-γGlu-C18 diacid])RAQDFVRWLLEG[Aib]-OH (N-terminus assumed; SMILES CC(C)C[C@H](NC(=O)[C@H](CC(C)C)NC(=O)[C@H](Cc1c[nH]c2ccccc12)NC(=O)[C@H](CCCNC(=N)N)NC(=O)[C@@H](NC(=O)[C@H](Cc1ccccc1)NC(=O)[C@H](CC(=O)O)NC(=O)[C@H](CCC(N)=O)NC(=O)[C@H](C)NC(=O)[C@H](CCCNC(=N)N)NC(=O)[C@H](CCCCNC(=O)CC[C@H](NC(=O)CC[C@H](NC(=O)COCCOCCNC(=O)COCCOCCNC(=O)CC[C@H](NC(=O)CC[C@H](NC(=O)CCCCCCCCCCCCCCCCC(=O)O)C(=O)O)C(=O)O)C(=O)O)C(=O)O)NC(=O)[C@H](CO)NC(=O)[C@H](CC(=O)O)NC(=O)[C@H](CC(C)C)NC(=O)[C@](C)(Cc1ccccc1)NC(=O)[C@H](CCCCN)NC(=O)[C@H](CO)NC(=O)[C@@H](NC(=O)[C@H](CC(=O)O)NC(=O)[C@H](CO)NC(=O)[C@@H](NC(=O)[C@H](Cc1ccccc1)NC(=O)[C@@H](NC(=O)CNC(=O)[C@H](CCC(N)=O)NC(=O)C(C)(C)NC(=O)[C@@H](N)Cc1c[nH]cn1)[C@@H](C)O)[C@@H](C)O)C(C)C)C(C)C)C(=O)N[C@@H](CCC(=O)O)C(=O)NCC(=O)NC(C)(C)C(=O)O) [Peptide 137]	143	268
H[Aib]QGTFTSDVSK[αMeF]LDSK([AEEA-AEEA-γGlu-C18 diacid])RAQDFVRWLLE[Aib]G-OH (N-terminus assumed; SMILES CC(C)C[C@H](NC(=O)[C@H](Cc1c[nH]c2ccccc12)NC(=O)[C@H](CCCNC(=N)N)NC(=O)[C@@H](NC(=O)[C@H](Cc1ccccc1)NC(=O)[C@H](CC(=O)O)NC(=O)[C@H](CCC(N)=O)NC(=O)[C@H](C)NC(=O)[C@H](CCCNC(=N)N)NC(=O)[C@H](CCCCNC(=O)COCCOCCNC(=O)COCCOCCNC(=O)CC[C@H](NC(=O)CCCCCCCCCCCCCCCCC(=O)O)C(=O)O)NC(=O)[C@H](CO)NC(=O)[C@H](CC(=O)O)NC(=O)[C@H](CC(C)C)NC(=O)[C@](C)(Cc1ccccc1)NC(=O)[C@H](CCCCN)NC(=O)[C@H](CO)NC(=O)[C@@H](NC(=O)[C@H](CC(=O)O)NC(=O)[C@H](CO)NC(=O)[C@@H](NC(=O)[C@H](Cc1ccccc1)NC(=O)[C@@H](NC(=O)CNC(=O)[C@H](CCC(N)=O)NC(=O)C(C)(C)NC(=O)[C@@H](N)Cc1c[nH]cn1)[C@@H](C)O)[C@@H](C)O)C(C)C)C(C)C)C(=O)N[C@@H](CC(C)C)C(=O)N[C@@H](CCC(=O)O)C(=O)NC(C)(C)C(=O)NCC(=O)O) [Peptide 31]	41.3	56.8
H[Aib]QGTFTSDVSK[αMeF]LDSK([AEEA-AEEA-γGlu-C18 diacid])RAQDFVQWLL[Aib]T-OH (N-terminus assumed; SMILES CC(C)C[C@H](NC(=O)[C@H](Cc1c[nH]c2ccccc12)NC(=O)[C@H](CCC(N)=O)NC(=O)[C@@H](NC(=O)[C@H](Cc1ccccc1)NC(=O)[C@H](CC(=O)O)NC(=O)[C@H](CCC(N)=O)NC(=O)[C@H](C)NC(=O)[C@H](CCCNC(=N)N)NC(=O)[C@H](CCCCNC(=O)COCCOCCNC(=O)COCCOCCNC(=O)CC[C@H](NC(=O)CCCCCCCCCCCCCCCCC(=O)O)C(=O)O)NC(=O)[C@H](CO)NC(=O)[C@H](CC(=O)O)NC(=O)[C@H](CC(C)C)NC(=O)[C@](C)(Cc1ccccc1)NC(=O)[C@H](CCCCN)NC(=O)[C@H](CO)NC(=O)[C@@H](NC(=O)[C@H](CC(=O)O)NC(=O)[C@H](CO)NC(=O)[C@@H](NC(=O)[C@H](Cc1ccccc1)NC(=O)[C@@H](NC(=O)CNC(=O)[C@H](CCC(N)=O)NC(=O)C(C)(C)NC(=O)[C@@H](N)Cc1c[nH]cn1)[C@@H](C)O)[C@@H](C)O)C(C)C)C(C)C)C(=O)N[C@@H](CC(C)C)C(=O)NC(C)(C)C(=O)N[C@H](C(=O)O)[C@@H](C)O) [Peptide 40]	29.9	123
H[Aib]QGTFTSDVSK[αMeF]LDSK([γGlu-γGlu-AEEA-AEEA-γGlu-γGlu-C18 diacid])RAQDFVRWLLE[Aib]G-OH (N-terminus assumed; SMILES CC(C)C[C@H](NC(=O)[C@H](Cc1c[nH]c2ccccc12)NC(=O)[C@H](CCCNC(=N)N)NC(=O)[C@@H](NC(=O)[C@H](Cc1ccccc1)NC(=O)[C@H](CC(=O)O)NC(=O)[C@H](CCC(N)=O)NC(=O)[C@H](C)NC(=O)[C@H](CCCNC(=N)N)NC(=O)[C@H](CCCCNC(=O)CC[C@H](NC(=O)CC[C@H](NC(=O)COCCOCCNC(=O)COCCOCCNC(=O)CC[C@H](NC(=O)CC[C@H](NC(=O)CCCCCCCCCCCCCCCCC(=O)O)C(=O)O)C(=O)O)C(=O)O)C(=O)O)NC(=O)[C@H](CO)NC(=O)[C@H](CC(=O)O)NC(=O)[C@H](CC(C)C)NC(=O)[C@](C)(Cc1ccccc1)NC(=O)[C@H](CCCCN)NC(=O)[C@H](CO)NC(=O)[C@@H](NC(=O)[C@H](CC(=O)O)NC(=O)[C@H](CO)NC(=O)[C@@H](NC(=O)[C@H](Cc1ccccc1)NC(=O)[C@@H](NC(=O)CNC(=O)[C@H](CCC(N)=O)NC(=O)C(C)(C)NC(=O)[C@@H](N)Cc1c[nH]cn1)[C@@H](C)O)[C@@H](C)O)C(C)C)C(C)C)C(=O)N[C@@H](CC(C)C)C(=O)N[C@@H](CCC(=O)O)C(=O)NC(C)(C)C(=O)NCC(=O)O) [Peptide 138]	104	184
H[Aib]QGTFTSDVSK[αMeF]LDSK([γGlu-γGlu-AEEA-AEEA-γGlu-γGlu-C18 diacid])RARDFVRWLLE[Aib]G-OH (N-terminus assumed; SMILES CC(C)C[C@H](NC(=O)[C@H](Cc1c[nH]c2ccccc12)NC(=O)[C@H](CCCNC(=N)N)NC(=O)[C@@H](NC(=O)[C@H](Cc1ccccc1)NC(=O)[C@H](CC(=O)O)NC(=O)[C@H](CCCNC(=N)N)NC(=O)[C@H](C)NC(=O)[C@H](CCCNC(=N)N)NC(=O)[C@H](CCCCNC(=O)CC[C@H](NC(=O)CC[C@H](NC(=O)COCCOCCNC(=O)COCCOCCNC(=O)CC[C@H](NC(=O)CC[C@H](NC(=O)CCCCCCCCCCCCCCCCC(=O)O)C(=O)O)C(=O)O)C(=O)O)C(=O)O)NC(=O)[C@H](CO)NC(=O)[C@H](CC(=O)O)NC(=O)[C@H](CC(C)C)NC(=O)[C@](C)(Cc1ccccc1)NC(=O)[C@H](CCCCN)NC(=O)[C@H](CO)NC(=O)[C@@H](NC(=O)[C@H](CC(=O)O)NC(=O)[C@H](CO)NC(=O)[C@@H](NC(=O)[C@H](Cc1ccccc1)NC(=O)[C@@H](NC(=O)CNC(=O)[C@H](CCC(N)=O)NC(=O)C(C)(C)NC(=O)[C@@H](N)Cc1c[nH]cn1)[C@@H](C)O)[C@@H](C)O)C(C)C)C(C)C)C(=O)N[C@@H](CC(C)C)C(=O)N[C@@H](CCC(=O)O)C(=O)NC(C)(C)C(=O)NCC(=O)O) [Peptide 136]	45.2	509
H[Aib]QGTFTSDVSK[αMeF]LDSK([γGlu-γGlu-AEEA-AEEA-γGlu-γGlu-C20 diacid])RAQDFVRWLLE[Aib]G-OH [Peptide 139]	630	984
HSQGS[αMeF]TSDVSK[αMeF]LDSK([γGlu-C18 diacid])AAQDFVQWIANT-NH2 (N-terminus assumed; SMILES CC[C@H](C)[C@H](NC(=O)[C@H](Cc1c[nH]c2ccccc12)NC(=O)[C@H](CCC(N)=O)NC(=O)[C@@H](NC(=O)[C@H](Cc1ccccc1)NC(=O)[C@H](CC(=O)O)NC(=O)[C@H](CCC(N)=O)NC(=O)[C@H](C)NC(=O)[C@H](C)NC(=O)[C@H](CCCCNC(=O)CC[C@H](NC(=O)CCCCCCCCCCCCCCCCC(=O)O)C(=O)O)NC(=O)[C@H](CO)NC(=O)[C@H](CC(=O)O)NC(=O)[C@H](CC(C)C)NC(=O)[C@](C)(Cc1ccccc1)NC(=O)[C@H](CCCCN)NC(=O)[C@H](CO)NC(=O)[C@@H](NC(=O)[C@H](CC(=O)O)NC(=O)[C@H](CO)NC(=O)[C@@H](NC(=O)[C@](C)(Cc1ccccc1)NC(=O)[C@H](CO)NC(=O)CNC(=O)[C@H](CCC(N)=O)NC(=O)[C@H](CO)NC(=O)[C@@H](N)Cc1c[nH]cn1)[C@@H](C)O)C(C)C)C(C)C)C(=O)N[C@@H](C)C(=O)N[C@@H](CC(N)=O)C(=O)N[C@H](C(N)=O)[C@@H](C)O) [Peptide 3]	69	149
H[Aib]QGTFTSDYSK[αMeF]LDSK([AEEA-AEEA-γGlu-C18 diacid])RAQDFVQWLV[PEG4′]-NH2 [Peptide 41]	663	5740
